Measured values published in patent US20220411487A1 (Regeneron, published 2022).

B1: REGN7977 (antibody, V domains shown)
VH: EVQLVESGGGLVKPGGSLRVSCAASGVTFSNVWMSWVRQVPGKGLEWVGRIKSKTDGGTTDYAAPVKGRFTISKDDSKNTLFLQMNSLKTEDTAVYYCTTETGDFWSGYYPRFQHWGQGTLVTVSS
VL: DIQMTQSPSSLSASVGDRVTITCRASQYISTYLNWYQQKPGKAPSLLIYAASSLQSGVPSRFSGSGSGTDFTLTISSLQPEDFASYSCQQSYSTPPYTFGQGTKLEIKR
notes: fully human; human IgG4 Fc with hinge S108P; also called mAb41465
B2: REGN7969 (antibody, human IgG4 S228P, kappa, V domains shown)
VH: QVQLVESGGGVVQPGRSLRLSCAASGFTFNNYGMHWVRQAPGKGLEWVAIISYDGSNEYYSDSVKGRFTISRDNSKNTLYLQMNSLRAEDTAVYYCARDQDYGGNLFHYWGQGTLVTVSS
VL: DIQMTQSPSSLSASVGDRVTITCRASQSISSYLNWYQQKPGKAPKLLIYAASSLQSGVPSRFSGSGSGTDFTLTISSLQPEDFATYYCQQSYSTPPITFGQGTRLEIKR
notes: fully human; human IgG4 Fc with hinge S108P; also called mAb37746
B3: REGN7971 (antibody, human IgG4 S228P, kappa, V domains shown)
VH: QVQLVESGGGVVQPGRSLRLSCAASGFTFSTYGMHWVRQAPGKGLEWVAIISYDGSNDYYLDSVKGRFTISRDNSKNTLYLQMNNLRAEDTAVYYCAKDQGYGGNLFASWGQGTLVTVSS
VL: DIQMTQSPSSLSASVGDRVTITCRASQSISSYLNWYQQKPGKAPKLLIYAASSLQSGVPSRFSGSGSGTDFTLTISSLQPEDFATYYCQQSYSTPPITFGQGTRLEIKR
notes: fully human; human IgG4 Fc with hinge S108P; also called mAb37763
B4: REGN7974 (antibody, human IgG4 S228P, kappa, V domains shown)
VH: EVQLVESGGGLVQPGRSLRLSCIASGFNFGDYGMSWVRQAPGKGLEWVGFIRSKAYGGTTEYAASVKGRFTISRDDSKSIAYLQMNSLKTEDAAMYYCSRDYYDILTGYYGDYWGQGTLVTVSS
VL: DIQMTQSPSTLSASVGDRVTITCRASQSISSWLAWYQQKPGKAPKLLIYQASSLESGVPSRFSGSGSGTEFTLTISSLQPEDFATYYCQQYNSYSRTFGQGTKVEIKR
notes: fully human; human IgG4 Fc with hinge S108P; also called mAb41422
B5: REGN8023 (antibody, human IgG4 S228P, kappa, V domains shown)
VH: EVQLVESGGGLVKPGGSLRISCAASGFIFVDYAMHWVRQAPGKGLEWVSGISWNSGSIGYADSVKGRFTISRDNAKKSLYLQMSGLRPEDTALYYCVKSGFYYVRSYFDNWGQGTLVTVSS
VL: DIVMTQSPLSLPVTPGEPASISCRSSQSLLDSDDGNTYLDWYLRKPGQSPQLLIYTLSYRASGVPDRFSGSGSGTDFTLKISRVEADDVGVYYCMQRIEFPLTFGGGTKVEIKR
notes: fully human; human IgG4 Fc with hinge S108P; also called mAb37699
B6: REGN7999 (antibody, human IgG4 S228P, kappa, V domains shown)
VH: EVQLVESGGGLVQPGGSLRLSCAASGFTFSSYAMTWVRQAPGKGLEWVSAISGSDTSTYYADSVKGRFTISRDNSKNTLFLQMNSLRAEDTAVYYCAKHQDYDFSYYYSAMDVWGQGTTVTVSS
VL: DIQMTQSPSSLSASVGDRVIITCRASQDFNSWLAWYQQKPGKAPKLLIYAASSLQSGVPSRFSGSGSGTDFTLTISSLQPEDFATYYCQQTDSFPFTFGPGTKVDIKR
notes: fully human; human IgG4 Fc with hinge S108P; also called mAb41450

Tests used:
[1] = target: T1, full length human TMPRSS6 with a C-terminal triple myc tag on HEK293.hHJV cells (HEK293.hHJV/3xMyc.hTMPRSS6) (human, UniProt Q8IU80 1-811); experiment: cell-based or functional assay
T1 sequence: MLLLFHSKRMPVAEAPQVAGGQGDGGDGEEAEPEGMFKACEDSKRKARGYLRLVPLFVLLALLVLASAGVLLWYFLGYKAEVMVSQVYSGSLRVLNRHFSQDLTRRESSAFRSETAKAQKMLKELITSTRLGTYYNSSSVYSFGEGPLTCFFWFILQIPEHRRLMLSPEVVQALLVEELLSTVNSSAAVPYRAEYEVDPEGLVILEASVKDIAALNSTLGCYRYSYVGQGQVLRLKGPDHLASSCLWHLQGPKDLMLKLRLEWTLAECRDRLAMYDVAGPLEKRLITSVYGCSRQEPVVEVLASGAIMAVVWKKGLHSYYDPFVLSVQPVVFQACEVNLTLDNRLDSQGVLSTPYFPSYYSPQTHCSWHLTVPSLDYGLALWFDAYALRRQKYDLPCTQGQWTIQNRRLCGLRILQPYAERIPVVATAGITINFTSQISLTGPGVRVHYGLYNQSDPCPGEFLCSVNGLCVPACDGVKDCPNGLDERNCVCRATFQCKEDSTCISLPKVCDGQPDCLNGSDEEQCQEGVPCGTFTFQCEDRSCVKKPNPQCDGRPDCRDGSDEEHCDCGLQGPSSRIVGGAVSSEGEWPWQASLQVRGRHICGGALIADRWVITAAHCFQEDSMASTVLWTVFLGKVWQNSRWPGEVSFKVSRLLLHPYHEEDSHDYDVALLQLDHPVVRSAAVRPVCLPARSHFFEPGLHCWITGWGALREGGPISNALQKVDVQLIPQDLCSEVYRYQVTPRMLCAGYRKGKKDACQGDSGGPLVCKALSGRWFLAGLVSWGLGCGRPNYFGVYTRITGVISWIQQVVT

[2] = target: T2, full length mouse TMPRSS6 on HEK293 cells (HEK293/mTMPRSS6) (mouse, UniProt Q9DBI0 1-811); experiment: cell-based or functional assay
T2 sequence: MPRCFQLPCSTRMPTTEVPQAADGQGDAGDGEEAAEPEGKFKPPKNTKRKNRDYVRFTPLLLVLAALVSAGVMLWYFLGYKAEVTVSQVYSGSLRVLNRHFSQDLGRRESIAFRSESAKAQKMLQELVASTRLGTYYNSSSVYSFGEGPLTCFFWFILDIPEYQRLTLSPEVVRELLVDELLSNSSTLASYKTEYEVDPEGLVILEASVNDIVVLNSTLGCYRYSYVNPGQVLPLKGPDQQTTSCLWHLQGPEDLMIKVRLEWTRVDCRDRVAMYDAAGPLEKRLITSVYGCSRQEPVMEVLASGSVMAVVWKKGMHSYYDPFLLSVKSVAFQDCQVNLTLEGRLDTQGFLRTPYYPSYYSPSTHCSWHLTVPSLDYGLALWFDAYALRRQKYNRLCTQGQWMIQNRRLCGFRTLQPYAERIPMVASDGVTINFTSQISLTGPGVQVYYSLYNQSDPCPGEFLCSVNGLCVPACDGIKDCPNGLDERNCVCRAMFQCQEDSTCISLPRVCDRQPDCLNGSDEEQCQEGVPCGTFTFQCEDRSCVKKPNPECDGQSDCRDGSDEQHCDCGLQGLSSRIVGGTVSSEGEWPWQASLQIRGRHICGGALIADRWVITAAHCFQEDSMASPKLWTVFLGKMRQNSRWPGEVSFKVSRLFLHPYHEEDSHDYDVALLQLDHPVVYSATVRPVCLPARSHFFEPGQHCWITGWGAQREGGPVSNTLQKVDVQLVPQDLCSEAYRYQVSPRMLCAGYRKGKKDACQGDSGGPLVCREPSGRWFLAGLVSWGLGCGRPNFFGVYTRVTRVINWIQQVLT

mTMPRSS6_S762A-MMH [3] = target: T3, mTMPRSS6_S762A-MMH (mouse, UniProt Q9DBI0 81-811); experiment: SPR, mAb captured via anti-hFc, 25 C
T3 construct: also called REGN6848; mouse TMPRSS6 extracellular domain with a S762A mutation and a C-terminal myc-myc-hexahistidine tag
Method: (§1) The equilibrium dissociation constant (KD) for TMPRSS6 binding to different TMPRSS6 monoclonal antibodies (mAbs) was determined using a real-time surface plasmon resonance biosensor using a Biacore 4000 instrument. All binding studies were performed in 10 mM HEPES, 150 mM NaCl, 3 mM EDTA, and 0.05% v/v Surfactant Tween-20, pH 7.4 (HBS-ET) running buffer at 25° C. and 37° C. The Biacore CM5 sensor chip surface was first derivatized by amine coupling with a human Fc specific mouse mAb to capture different TMPRSS6 mAbs. […] Different concentrations (100 nM to 3.7 nM, 3-fold serial dilution) of the TMPRSS6 reagent proteins prepared in HBS-EP running buffer were injected over the TMPRSS6 mAb captured surface for 150 seconds at a flow rate of 30 μL/min and their dissociation in HBS-ET running buffer was monitored for 10 minutes. At the end of each cycle, the TMPRSS6 mAb captured surface was regenerated using a 12 second injection of 20 mM phosphoric acid.
(§2) The association rate (kₐ) and dissociation rate (kd) were determined by fitting the real-time binding sensorgrams to a 1:1 binding model with mass transport limitation using Scrubber 2.0 (BioLogic Software) curve-fitting software. Binding dissociation equilibrium constant (KD) and dissociative half-life (t½) were calculated from the kinetic rates as: […]

mTMPRSS6_S762A-MMH [4] = target: T3, mTMPRSS6_S762A-MMH; experiment: SPR, mAb captured via anti-hFc, 37 C
Method: as §1, §2

[5] = target: T2, full length mouse TMPRSS6 on HEK293 …; experiment: cell-based or functional assay; remark: listed apart in the source
[6] = target: T2, full length mouse TMPRSS6 on HEK293 …; experiment: flow cytometry, HEK293/mTMPRSS6 cells

T3 sequence (Q9DBI0 other isoform, or with tags, fused parts or gaps S762A S762A): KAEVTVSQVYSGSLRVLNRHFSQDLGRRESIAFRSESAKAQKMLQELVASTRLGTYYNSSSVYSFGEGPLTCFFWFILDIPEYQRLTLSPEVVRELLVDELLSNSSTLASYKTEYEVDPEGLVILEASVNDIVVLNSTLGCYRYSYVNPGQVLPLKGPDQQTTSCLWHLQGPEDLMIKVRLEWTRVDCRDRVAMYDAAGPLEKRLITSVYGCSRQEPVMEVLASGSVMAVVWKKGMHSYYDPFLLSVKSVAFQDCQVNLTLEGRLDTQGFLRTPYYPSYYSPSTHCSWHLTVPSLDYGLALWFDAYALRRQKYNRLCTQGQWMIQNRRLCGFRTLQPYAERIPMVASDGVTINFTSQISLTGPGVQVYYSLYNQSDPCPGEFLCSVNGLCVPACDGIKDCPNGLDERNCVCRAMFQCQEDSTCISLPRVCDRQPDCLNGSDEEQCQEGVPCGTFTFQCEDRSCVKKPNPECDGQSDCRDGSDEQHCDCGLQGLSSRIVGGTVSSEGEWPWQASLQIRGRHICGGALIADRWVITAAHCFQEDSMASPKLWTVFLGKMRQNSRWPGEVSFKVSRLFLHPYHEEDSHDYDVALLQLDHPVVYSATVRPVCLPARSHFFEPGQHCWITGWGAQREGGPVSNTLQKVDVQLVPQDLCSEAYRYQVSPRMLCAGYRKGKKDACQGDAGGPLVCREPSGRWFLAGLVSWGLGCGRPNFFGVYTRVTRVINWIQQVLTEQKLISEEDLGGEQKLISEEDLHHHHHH

Binder	Geometric Mean Fluorescence Intensity of cell surface hHJV, 50 nM mAb [1]	Median Fluorescence Intensity of cell surface hHJV, 50 nM mAb [1]	% inhibition, HEK293 bioassay, overnight pre-incubation 37 C [2] [%]	IC50, HEK293 bioassay, overnight pre-incubation 37 C [2] [nM]	100 nM Ag Bound (mTMPRSS6_S762A-MMH [3]) [RU]	Kd (mTMPRSS6_S762A-MMH [3]) [nM]	koff (mTMPRSS6_S762A-MMH [3]) [s⁻¹]	kon (mTMPRSS6_S762A-MMH [3]) [M⁻¹ s⁻¹]	t½ (mTMPRSS6_S762A-MMH [3]) [min]	100 nM Ag Bound (mTMPRSS6_S762A-MMH [4]) [RU]	Kd (mTMPRSS6_S762A-MMH [4]) [nM]	koff (mTMPRSS6_S762A-MMH [4]) [s⁻¹]	kon (mTMPRSS6_S762A-MMH [4]) [M⁻¹ s⁻¹]	t½ (mTMPRSS6_S762A-MMH [4]) [min]	% inhibition, HEK293 bioassay, 30 min pre-incubation 25 C [5] [%]	IC50, HEK293 bioassay, 30 min pre-incubation 25 C [5] [nM]	binding result [6]	binding result (mTMPRSS6_S762A-MMH [3])
B1	49000	63800	97	14	20	233	0.067	288000	0.17	9	703	0.227	323000	0.05	58	35	–	–
B2	47900	67500	–	–	4	–	–	–	–	2	–	–	–	–	–	–	no binding (tested: 375 nM)	no binding (tested: 100 nM)
B3	61800	84400	–	–	–	–	–	–	–	–	–	–	–	–	–	–	no binding (tested: 375 nM)	–
B4	40900	56700	–	–	3	–	–	–	–	3	–	–	–	–	–	–	no binding (tested: 375 nM)	no binding (tested: 100 nM)
B5	55500	77800	98	1.2	209	1.84	0.0011	599000	10	189	24.7	0.00666	269000	1.7	82	1.5	–	–
B6	30700	40100	103	2.1	178	0.0829	3.45e-05	416000	334	130	0.317	0.00016	505000	72	88	3.6	–	–
